Laboratory results reported in patent US20210155910, “IMPROVED REVERSE TRANSCRIPTASE AND METHODS OF USE” (YALE UNIVERSITY, published 2021).

Biological target: T1, E.r. maturase (MarathonRT) WT (Eubacterium rectale)
T1 chain: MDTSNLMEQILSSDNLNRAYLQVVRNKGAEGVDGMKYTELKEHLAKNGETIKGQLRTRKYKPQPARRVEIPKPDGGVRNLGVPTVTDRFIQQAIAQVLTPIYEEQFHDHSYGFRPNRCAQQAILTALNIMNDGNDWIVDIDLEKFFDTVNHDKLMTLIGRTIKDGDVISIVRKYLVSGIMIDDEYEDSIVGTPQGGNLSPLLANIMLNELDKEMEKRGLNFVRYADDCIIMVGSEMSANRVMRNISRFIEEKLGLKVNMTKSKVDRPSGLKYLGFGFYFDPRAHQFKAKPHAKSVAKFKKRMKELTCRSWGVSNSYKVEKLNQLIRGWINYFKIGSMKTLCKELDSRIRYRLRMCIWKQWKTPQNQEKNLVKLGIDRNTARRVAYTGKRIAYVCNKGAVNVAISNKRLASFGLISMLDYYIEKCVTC
Assay: indirect: D4A at 16:1 raises primer incorporation on RepA D3 from 84.1% to 93.0%; Tris pH 8.3, 200 mM KCl, 2 mM MgCl2, 0.6 M trehalose
Conditions: tags: N-terminal 6xHis-SUMO, cleaved; hairpin
Source text: The surface of E.r. maturase is enriched with positively charged amino acids, to which primers used for reverse transcription non-specifically binds, and thus the efficiency of primer utilization is compromised. To reduce the non-specific binding, D4A helix (FIG. 12A, originated from E.r. Group II intron) was used in the reaction buffer to block the positively charged residues on the surface of E.r. maturase, attempting to further improve the performance of E.r. maturase in the already optimized buffer (50 mM Tris pH 8.3, 200 mM KCl, 2 mM MgCl₂, 5 mM DTT and 0.6 M trehalose).

B1: D4A helix of E.r. group II intron (ssRNA)
RNA: GUCUCGUAUUGCAGAAAUGACAACAUCUGCCGUAACCAAUCGGGUAAAAGGUGGUCAAAUCAAGCGAGAC
- binding result: binds
